Data taken from patent US20200191797A1.

What was measured:
[1] = molecular target: IgE of pooled serum samples (human); test: cross-inhibition ELISA; inhibitor 1 ug/ml with pooled sera; C. idella parvalbumin on the plate
[2] = molecular target: IgE of pooled serum samples (human); test: cross-inhibition ELISA; inhibitor 50 ug/ml with pooled sera; C. idella parvalbumin on the plate
[3] = molecular target: IgE of pooled serum samples (human); test: cross-inhibition ELISA; C. idella parvalbumin on the plate; inhibitor concentration not stated

Row | % inhibition of IgE binding [1] | % inhibition of IgE binding [2] | % inhibition of IgE binding [3] | Binder
1 | 40% | 50% |  | recombinant cod allergen Gad m 1 (cod parvalbumin) (protein, UniProt Q90YK9 1-109, looked up, not shown: small tags and cut ends) MAFAGILNDADITAALAACKAEGSFDHKAFFTKVGLAAKSPADIKKVFEIIDQDKSDFVEEDELKLFLQNFSAGARALSDAETKVFLKAGDSDGDGKIGVDEFGAMIKA
2 |  |  | 10% | recombinant aldolase A of grass carp Ctenopharyngodon idella (enzyme, not shown: small tags and cut ends) MPHAYPFLTPEQKKELSDIALRIVAPGKGILAADESTGSVAKRFQSINAENTEENRRLYRQLLFTADDRVKPCIGGVILFHETLYQKADDGKLFSQLLKERGMVVGIKVDKGVVPLAGTNGETTTQGLDGLYERCAQYKKDGADFAKWRCVLKITSTTPSRLAIIENANVLARYASICQMHGIVPIVEPEILPDGDHDLKRCQYVTEKVLAAVYKALSDHHVYLEGTLLKPNMVTAGHSCSQKNTPQEIAMATVTALRRTVPPAVPGITFLSGGQSEEEATLNLNAMNKCPLHRPWALTFSYGRALQASALKAWGGKKENGKACQEEFIKRALNNSLACVGKYVSSGDKGAAAGESLFVANHAY
